From PMC6522346 (Science (New York, N.Y.), 2018) come the findings set out here.

The stoichiometry N is the number of molecules, sites or subunits per partner or assembly.

Holding throughout (test): native MS
Data set [1] addresses complex III (Bos taurus (endogenous in bovine mitochondria)) (UniProt P00157).
For the next data set, the target named is complex IV.
Data set [2] has as its target Anchor Cell Fusion Failure protein 1.
The data set “native MS” deals with the molecule itself.

The molecule “complex III (from UniProt P00157;P00129)” gave a stoichiometry N in data set [1] of 2.

In the data set with complex IV, complex IV registered a stoichiometry N of 2.

“Anchor Cell Fusion Failure protein 1 (natural protein)”: the stoichiometry N in data set [2] came out at 2.

B1: CyoB (natural protein)
chain: MFGKLSLDAVPFHEPIVMVTIAGIILGGLALVGLITYFGKWTYLWKEWLTSVDHKRLGIMYIIVAIVMLLRGFADAIMMRSQQALASAGEAGFLPPHHYDQIFTAHGVIMIFFVAMPFVIGLMNLVVPLQIGARDVAFPFLNNLSFWFTVVGVILVNVSLGVGEFAQTGWLAYPPLSGIEYSPGVGVDYWIWSLQLSGIGTTLTGINFFVTILKMRAPGMTMFKMPVFTWASLCANVLIIASFPILTVTVALLTLDRYLGTHFFTNDMGGNMMMYINLIWAWGHPEVYILILPVFGVFSEIAATFSRKRLFGYTSLVWATVCITVLSFIVWLHHFFTMGAGANVNAFFGITTMIIAIPTGVKIFNWLFTMYQGRIVFHSAMLWTIGFIVTFSVGGMTGVLLAVPGADFVLHNSLFLIAHFHNVIIGGVVFGCFAGMTYWWPKAFGFKLNETWGKRAFWFWIIGFFVAFMPLYALGFMGMTRRLSQQIDPQFHTMLMIAASGAVLIALGILCLVIQMYVSIRDRDQNRDLTGDPWGGRTLEWATSSPPPFYNFAVVPHVHERDAFWEMKEKGEAYKKPDHYEEIHMPKNSGAGIVIAAFSTIFGFAMIWHIWWLAIVGFAGMIITWIVKSFDEDVDYYVPVAEIEKLENQHFDEITKAGLKNGN
On to B1, for which the “stoichiometry N” value in the data set “native MS” amounted to 2.

B2: adenine nucleotide translocase 1 (natural protein)
chain: MSDQALSFLKDFLAGGVAAAISKTAVAPIERVKLLLQVQHASKQISAEKQYKGIIDCVVRIPKEQGFLSFWRGNLANVIRYFPTQALNFAFKDKYKQIFLGGVDRHKQFWRYFAGNLASGGAAGATSLCFVYPLDFARTRLAADVGKGAAQREFTGLGNCITKIFKSDGLRGLYQGFNVSVQGIIIYRAAYFGVYDTAKGMLPDPKNVHIIVSWMIAQTVTAVAGLVSYPFDTVRRRMMMQSGRKGADIMYTGTVDCWRKIAKDEGPKAFFKGAWSNVLRGMGGAFVLVLYDEIKKFV
As for B2, the “stoichiometry N” value in “native MS” was 2.

B3: ExbB (natural protein)
chain: MGNNLMQTDLSVWGMYQHADIVVKCVMIGLILASVVTWAIFFSKSVEFFNQKRRLKREQQLLAEARSLNQANDIAADFGSKSLSLHLLNEAQNELELSEGSDDNEGIKERTSFRLERRVAAVGRQMGRGNGYLATIGAISPFVGLFGTVWGIMNSFIGIAQTQTTNLAVVAPGIAEALLATAIGLVAAIPAVVIYNVFARQIGGFKAMLGDVAAQVLLLQSRDLDLEASAAAHPVRVAQKLRAG
In the case of B3, the “stoichiometry N” value in the data set “native MS” stood at 5.

B4: MdtB (natural protein)
chain: MQVLPPSSTGGPSRLFIMRPVATTLLMVAILLAGIIGYRALPVSALPEVDYPTIQVVTLYPGASPDVMTSAVTAPLERQFGQMSGLKQMSSQSSGGASVITLQFQLTLPLDVAEQEVQAAINAATNLLPSDLPNPPVYSKVNPADPPIMTLAVTSTAMPMTQVEDMVETRVAQKISQISGVGLVTLSGGQRPAVRVKLNAQAIAALGLTSETVRTAITGANVNSAKGSLDGPSRAVTLSANDQMQSAEEYRQLIIAYQNGAPIRLGDVATVEQGAENSWLGAWANKEQAIVMNVQRQPGANIISTADSIRQMLPQLTESLPKSVKVTVLSDRTTNIRASVDDTQFELMMAIALVVMIIYLFLRNIPATIIPGVAVPLSLIGTFAVMVFLDFSINNLTLMALTIATGFVVDDAIVVIENISRYIEKGEKPLAAALKGAGEIGFTIISLTFSLIAVLIPLLFMGDIVGRLFREFAITLAVAILISAVVSLTLTPMMCARMLSQESLRKQNRFSRASEKMFDRIIAAYGRGLAKVLNHPWLTLSVALSTLLLSVLLWVFIPKGFFPVQDNGIIQGTLQAPQSSSFANMAQRQRQVADVILQDPAVQSLTSFVGVDGTNPSLNSARLQINLKPLDERDDRVQKVIARLQTAVDKVPGVDLFLQPTQDLTIDTQVSRTQYQFTLQATSLDALSTWVPQLMEKLQQLPQLSDVSSDWQDKGLVAYVNVDRDSASRLGISMADVDNALYNAFGQRLISTIYTQANQYRVVLEHNTENTPGLAALDTIRLTSSDGGVVPLSSIAKIEQRFAPLSINHLDQFPVTTISFNVPDNYSLGDAVQAIMDTEKTLNLPVDITTQFQGSTLAFQSALGSTVWLIVAAVVAMYIVLGILYESFIHPITILSTLPTAGVGALLALLIAGSELDVIAIIGIILLIGIVKKNAIMMIDFALAAEREQGMSPREAIYQACLLRFRPILMTTLAALLGALPLMLSTGVGAELRRPLGIGMVGGLIVSQVLTLFTTPVIYLLFDRLALWTKSRFARHEEEA
As to B4, the “stoichiometry N” value in the data set “native MS” is 2.
